Paper PMC11148069 (2024)

Columns and labels:
xNup93-Nb1t = assay: BLI
xhNup93-Nb3t = assay: BLI

B1: recombinant Xenopus Nup93 target (BLI) (natural protein)
chain: MDGEGFGELLQQAEQLAAETEGVTELPHVERNLQEIQQAGERLRSKTMTRTSQESANVKASVLLGSRGLDISHISQRLESLSAATTFEPLEPVKDTDIQGFLKNEKDNALLSAIEESRKRTFVMAEEYHRESMLVEWEQVKQRVLHTLLASGEDALDFTQESETSYISESGAPGRSSLDNVEMAYARQMYMYNEKVVSGHLQPSLVDLCTEAAERLDDKNVSDLWVMVKQMTDVPLIPASDTLKSRCSGQMQMAFVRQALNYLEQSYKNYTLISVFANLQQAQLGGVPGTYNLVRSFLNIRLPTPIPGLQDGEIEGYPVWALIYYCMRCGDLMAAQQVVNRAQHQLGDFKNCFQEYIHNKDRRLSPTTENKLRLHYRRAVRASTDPYKRAVYCIIGRCDVSDNHSEVADKTEDYLWLKLSQVCFEDEANSSPQDRLTLPQFQKQLFEDYGESHFAVNQQPYLYFQVLFLTAQFEAAIAFLFRLERTRCHAVHVALALFELKLLLKSTGQSAQLLSQEPGEPQGVRRLNFIRLLMLYTRKFEPTDPREALQYFYFLRNEKDNQGESMFLRCVSELVIESREFDMLLGKLEKDGSRKPGAIDKFTRDTKTIINKVASVAENKGLFEEAAKLYDLAKNPDKVLELTNKLLSPVVSQISAPQSNRERLKNMALAIAERYKSQGVSAEKSINSTFYLLLDLITFFDEYHAGHIDLSFDVIERLKLVPLSQDSVEERVAAFRNFSDEIRHNLSEILLATMNILFTQYKRLKGSGPTTLGRPQRVQEDKDSVLRSQARALITFAGMIPYRMSGDTNARLVQMEVLMN
Binder B1 has a Kd (xNup93-Nb1t) of 0.1 nM and a Kd (xhNup93-Nb3t) of under 0.01 nM.
